Laboratory results as given in the supplement of paper PMC10201428.
± gives the standard deviation of the averaged measurements.

system: VchCAST RNA-guided transposition machinery (E. coli BL21(DE3) host, lacZ target); assay: relative integration efficiency (T-RL orientation) vs wild-type transposon end (log2 (normalized fold change)); transposon end mutated: right end (5 bp flank + 75 bp right end); higher = more efficient transposition
In short: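 Each barcoded pool, 1549 left-end or 1849 right-end transposon variants in a pUC57 mini-transposon donor, went into E. coli BL21(DE3) with a T7-driven effector plasmid (CRISPR array, tniQ-cas8-cas7-cas6, tnsA-tnsB-tnsC). Plates contained 0.1 mM IPTG and were held at 37°C for 18 h. Input plasmids and genomic integration junctions were PCR-amplified and read by Illumina sequencing, with two biological output replicates and four reference barcodes. Relative integration efficiency is the fold change of output over input barcode abundance, normalised to the reference barcodes and log-transformed.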

Going from “ACATTTGTTGATACAACCATAAAGTGATATTTACAACCATAAAGTGATATTTATCACAACCATAAGTTGATATTTTCTCTGATCATAGTCAGACCAACATTGCTACGACCCGTATTCGCACCGACAC” to “ACATTTGTTGATACAACCATAAAATGAGCCGGCCACCCATAAATTGAGCCGGCTCACACCCATAAATTGAGCGGTACTCTGATCATAGTCAGACCAACATTGCTACGACCCGTATTCGCACCGACAC”, the “relative integration efficiency (log2)” value falls from 0.0887 ± 0.14 to -4.23 ± 0.084.

“ACATTTGTTGATACACCCATAAATTGATATTGCCACCCATAAATTGATAATTATCACACCCATAAATTGATAATTACTCTGATCATAGTCAGACCAACATTGCTACGACCCGTATTCGCACCGACAC” and “ACATTTGTTGATACAACCATAAAATGATAATAACACCCATAAATTGATAATAATCACACCCATAAATTGATATTCCCTCTGATCATAGTCAGACCAACATTGCTACGACCCGTATTCGCACCGACAC” are within error of each other in “relative integration efficiency (log2)” value: -0.597 ± 0.26 for the first, -0.389 ± 0.15 for the second.

Going from “ACATTTGTTGATACACAACTAAAATGATAATTACACCCATAAATTGATAATTATCACACCCATAAATTGATATTGCCTCTGATCATAGTCAGACCAACATTGCTACGACCCGTATTCGCACCGACAC” to “ACATTTGTTGATACAACCATAAAATGATAATTACACCCAATTTTTGATAATTATCACACCCATAAATTGATATTGCCTCTGATCATAGTCAGACCAACATTGCTACGACCCGTATTCGCACCGACAC”, the “relative integration efficiency (log2)” value rises from -3.13 ± 0.19 to -0.529 ± 0.16.

Compared with “ACATTTCTGGATACAACCATAAAATGATAATTACACCCATAAATTGATAATTATCACACCCAATTTAACTATAACGCTCTGATCATAGTCAGACCAACATTGCTACGACCCGTATTCGCACCGACAC”, “ACATTTGTTGATACAACCATAAAATGATAATTACACCCATAAATTGATAATTATCACACCCATAAATTGATATTGCCTCTTAACACCCGTATTACTTCATAATCGTTTGTAATTCAAGCACCGACAC” is higher in “relative integration efficiency (log2)” value: -1.94 ± 0.42 for the first, -0.169 ± 0.26 for the second.

Going from “ACATTTGTTGATACAACCATAAAATGATAATTAATAATTATTTATAATCAGCAACCACCCATAAATTGATAATTATCAACAAACGCCCGGTCGCGGTACTCTGATCATAGTCAGACCAACATTGCTA” to “ACATTTGTTGATACAACCATAAAATGATAATTACACCCATAAATTGATAATTATCACCCATAAATTGATATTGCCTCTGATCATAGTCAGACCAACATTGCTACGACCCGTATTCGCACCGACACTG”, the “relative integration efficiency (log2)” value rises from -2.29 ± 0.24 to -0.448 ± 0.081.

First: ACATTTGTTGATACAACCATAAAATGATAATTAATAATTATTTATAATCAGCCACCCATAAATTGATAATTATCAACAAACGCCCGGTCGCGGTACTCTGATCATAGTCAGACCAACATTGCTACGA
Second: ACATTTGTTGATACAACCATAAAATGATAATTACACCCATAAATTGATAATTATACACCCCATAAATTGATATTGCCTCTGATCATAGTCAGACCAACATTGCTACGACCCGTATTCGCACCGACAC
The “relative integration efficiency (log2)” value of the first is lower: -1.83 ± 0.4 for the first, -1.07 ± 0.23 for the second.

“ACATTTGTTGATACAACCATAAAACGATAATTACACCCATAAATTCATCATTATCACACCCAATTTAACTATAACGCTCTGATCATAGTCAGACCAACATTGCTACGACCCGTATTCGCACCGACAC” and “ACATTTGTGGATACAACCCTAAAATGATAATTACACCCATAAATTGATAATTATCACCCCCAATTTAACTATAACGCTCTGATCATAGTCAGACCAACATTGCTACGACCCGTATTCGCACCGACAC” are within 0.2 log units of each other in “relative integration efficiency (log2)” value: -2.21 ± 0.32 for the first, -2.2 ± 0.29 for the second.

Compared with “ACATTTGTTGATACAACCATAAAATGATAATTACACCCATAAATTGATAATTATCACACCCATAAATTGATATCTCTGATCATAGTCAGACCAACATTGCTACGACCCGTATTCGCACCGACACTGA”, “ACATTTGTTGATACACCCATAAATTGATAATTACAACCATATATTGATATCTCTCACAACCATAAGTTGATATTTTCTCTGATCATAGTCAGACCAACATTGCTACGACCCGTATTCGCACCGACAC” is higher in “relative integration efficiency (log2)” value: -0.049 ± 0.013 for the first, 0.516 ± 0.26 for the second.

First: ACATTTGTTGATACAACCATAAAATGATAATTACACCCAGCCCTTGATAATTATCACACCCATAAATTGATATTGCCTCTGATCATAGTCAGACCAACATTGCTACGACCCGTATTCGCACCGACAC
Second: ACATTTGTTGATACAACCATAAAATGATAAGGCAACCCATAAATTGATAATTATCACACCCATAAATTGATATTGCCTCTGATCATAGTCAGACCAACATTGCTACGACCCGTATTCGCACCGACAC
The “relative integration efficiency (log2)” value of the first is lower: -1.99 ± 0.04 for the first, -0.5904 ± 0.00039 for the second.

Compared with “ACATTTGTTGATACACCCATAAATTGATATTGCCAACCATATATTGATATCTCTCACAACCATAAGTTGATATTTTCTCTGATCATAGTCAGACCAACATTGCTACGACCCGTATTCGCACCGACAC”, “ACATTTGTTGATACAACCATAAAGTGATATTTACAACCATATATTGATATCTCTCACACCCATAAATTGATATTGCCTCTGATCATAGTCAGACCAACATTGCTACGACCCGTATTCGCACCGACAC” is lower in “relative integration efficiency (log2)” value: 0.0747 ± 0.27 for the first, -0.378 ± 0.18 for the second.

Compared with “ACATTTGTTGATACAACCATAAAATGATAATTACACCCATCAATTGATAATTATCCCACCCAATTTAACTATAACGCTCTGATCATAGTCAGACCAACATTGCTACGACCCGTATTCGCACCGACAC”, “ACATTTGTTGATACAACCATATATTGATATCTCCAACCATATATTGATATCTCTCACAACCATAAGTTGATATTTTCTCTGATCATAGTCAGACCAACATTGCTACGACCCGTATTCGCACCGACAC” is higher in “relative integration efficiency (log2)” value: -1.93 ± 0.31 for the first, -0.571 ± 0.19 for the second.

“ACATTTGTACATACAACCATAAAATGATAATTACACCCATAAATTGATAATTATCACACCCATAAATTGATATTGCCTCTGATCATAGTCAGACCAACATTGCTACGACCCGTATTCGCACCGACAC” and “ACATTTGTTGATACACCCATAAATTGATAATTACAACCATAAAATGATAATTATCACAACCATATATTGATATCTCCTCTGATCATAGTCAGACCAACATTGCTACGACCCGTATTCGCACCGACAC” are within error of each other in “relative integration efficiency (log2)” value: -0.312 ± 0.12 for the first, -0.596 ± 0.35 for the second.

First: ACATTTGTTGATACAACCATAAAATGATAATTCACCCATAAATTGATAATTATCACACCCATAAATTGATATTGCCTCTGATCATAGTCAGACCAACATTGCTACGACCCGTATTCGCACCGACACT
Second: ACATTTGTTGATACAACCATAAAATGATAATTACACCCATAAATTGATATTGCTCACACCCATAAATTGATATTGCCTCTGATCATAGTCAGACCAACATTGCTACGACCCGTATTCGCACCGACAC
The “relative integration efficiency (log2)” value of the first is lower: -1.27 ± 0.026 for the first, -0.394 ± 0.045 for the second.

Going from “ACATTTGTTGATACAACCATATATTGATATCTCCACCCATAAATTGATATTGCTCACAACCATAAAATGATAATTACTCTGATCATAGTCAGACCAACATTGCTACGACCCGTATTCGCACCGACAC” to “ACATTTGTCGATACAACCATAAAATGATAATTACACCCATAAATGGATCATTATCACCCCCAATTTAACTATAACGCTCTGATCATAGTCAGACCAACATTGCTACGACCCGTATTCGCACCGACAC”, the “relative integration efficiency (log2)” value falls from -0.537 ± 0.12 to -1.61 ± 0.32.

Compared with “ACATTTGTTGATACAACCCTAAAATGATAATTACACCCATAAATTGATCATTATCACACCCAATTTAACTATAACGCTCTGATCATAGTCAGACCAACATTGCTACGACCCGTATTCGCACCGACAC”, “ACATTTGTTGATACAACCATAAAATGATAATTACACCCATAAATTGATTCACACCCATAAATTGATATTGCCTCTGATCATAGTCAGACCAACATTGCTACGACCCGTATTCGCACCGACACTGACT” is higher in “relative integration efficiency (log2)” value: -3 ± 0.31 for the first, -1.49 ± 0.24 for the second.

First: ACATTTCTGGATACAACCATAAAATGATAATTACACCCATAAATGGATAATTATCACACCCAATTTAACTATAACGCTCTGATCATAGTCAGACCAACATTGCTACGACCCGTATTCGCACCGACAC
Second: ACATTTGTTGATACAACCATAAAAACTAAATTACACCCATAAATTGATAATTATCACACCCATAAATTGATATTGCCTCTGATCATAGTCAGACCAACATTGCTACGACCCGTATTCGCACCGACAC
The “relative integration efficiency (log2)” value of the first is lower: -2.35 ± 0.26 for the first, -1.23 ± 0.062 for the second.
